{
  "source": "paper PMC10916747",
  "about": "“Safety, biodistribution and radiation dosimetry of the Arg-Gly-Asp peptide ^99mTc-maraciclatide in healthy volunteers” (Nuclear Medicine Communications, 2024)",
  "key": {"healthy volunteers [1]": {"test_system": "healthy volunteers", "assay": "Phase 1 safety assessment (adverse events, vital signs, ECG, laboratory parameters)", "procedure": "In 2003, a phase 1, placebo-controlled, observer-blinded, randomised, single ascending-dose study was performed. The study aimed to assess the safety of three intravenous levels of maraciclatide and the biodistribution and radiation dosimetry of ^99mTc-maraciclatide in healthy volunteers, assessing the potential of ^99mTc-maraciclatide as a radiopharmaceutical for diagnostic imaging.\nSafety data on vital signs (heart rate, blood pressure, temperature, and oxygen saturation), electrocardiograms (ECG), laboratory parameters and physical examinations (general appearance, lung, abdominal, cardiovascular, and neurological exam by a qualified clinician) were measured prior to administration, and at multiple time points up to 7 days following administration. Based on clinical assessment, new abnormal or worsening clinical findings were defined as a change from the participant’s normal baseline to abnormal. All abnormal changes were recorded as adverse events (AEs).\nSafety assessments were performed by an observer blinded to the administration of the placebo and ^99mTc-maraciclatide. A thorough review of safety data was performed before the decision was made to escalate to the higher dose in participants."}, "clinical": {"assay": "clinical", "set-up": "species or system human", "conditions": "human, in vivo, iv, total radioactivity", "procedure": "(§1) On the day of administration before the administration of ^99mTc-maraciclatide, a transmission scan was obtained. The counts acquired from a flood or line source with and without the participant on the imaging couch were utilised to calculate body attenuation. Following intravenous administration of ^99mTc-maraciclatide, whole-body gamma scintigraphy was performed at 5 min post-administration up to 24 h as described below (section 2.6). Additional anterior and posterior planar images of the chest (45 min and 1 h 45 min, post-administration) and the pelvis (1 h 15 min and 2 h post-administration) were obtained for each participant.\n(§2) Regions of interest (ROIs) were selected from organs and tissues on the whole-body scintigraphic images showing significant activity uptake. ^99mTc activity in ROIs was calculated using the methodology described in Medical Internal Radiation Dose (MIRD) Pamphlet No. 16 [15].\n(§3) To calculate ^99mTc-maraciclatide ex-vivo activity, blood, plasma, urine, and faeces were collected at various time points after administration. Blood and plasma samples were collected at 10 min, 30 min, 1 h, 2 h, 4 h, 8 h, 24 h, 48 h, 72 h, and 7 days post-administration. Concentrations of maraciclatide in plasma were assayed using the LC-MS method (LOQ was 0.5 ng/ml). Urine was also collected at the same time points (if possible) up to 24 h post-administration. Faecal samples were collected as voided for up to 24 h post-administration. Assayed samples for ^99mTc-maraciclatide content were then measured using a gamma counter.\n(§4) The biodistribution of ^99mTc was determined by whole-body conjugate view imaging in conjunction with extracorporeal activity measurements in whole blood, plasma, voided urine, and faeces, as described above. Simultaneous anterior and posterior whole-body images were acquired beginning nominally at 5 min, 15 min, 30 min, 60 min, 90 min, 3 h, 6 h and 12 h post-administration. A final anterior and posterior image pair was acquired at a ninth time-point between 21 and 24 h post-administration. Quantitative analysis of the incorporated data at multiple time points yielded biodistribution data consisting of activity in 10 specified organs or tissues [brain, salivary glands, thyroid gland, lungs, heart, spleen, liver, gallbladder, gastrointestinal (GI) tract and urinary bladder]. The remaining ^99mTc activity in other tissues was grouped within a ‘remaining tissues’ category. For each organ or tissue of interest, the ^99mTc activity was decay-corrected to the administration time and normalised to the injected activity. The temporal variation of this normalised and decay-corrected activity was then fit by one of several analytical functions, which was then integrated to yield the cumulated activity for that organ normalised to the injected activity."}, "healthy volunteers [2]": {"test_system": "healthy volunteers", "assay": "clinical", "set-up": "species or system human", "conditions": "in vivo", "procedure": "as §1, §2, §3, §4"}, "healthy volunteers [3]": {"test_system": "healthy volunteers", "assay": "clinical", "set-up": "species or system human", "conditions": "in vivo", "procedure": "as §3\nConcentrations of maraciclatide in plasma were assayed using the LC-MS method (LOQ was 0.5 ng/ml). The mean apparent terminal elimination half-life was approximately 1 h. Overall, systemic clearance was approximately 6.7 ml/min/kg, whilst the mean apparent volume of distribution was approximately 520 ml/kg. The majority of ^99mTc activity was excreted through the urinary pathway and GI tract, 55% and 16%, respectively.", "remark": "listed apart in the source"}, "healthy volunteers [4]": {"test_system": "healthy volunteers", "set-up": "species or system human", "conditions": "in vivo", "procedure": "The mean absorbed doses per unit injected activity to 24 target organs were evaluated from this matrix of normalised cumulated activity values, using the MIRD schema, for a 70-kg adult human. The cumulated activity in the urinary bladder contents and voided urine was calculated using a dynamic urinary bladder model for a 3.5-h voiding interval. Cumulative activities in the GI tract were calculated using a dynamic model that assumed that activity enters the GI tract solely through hepatobiliary drainage. […] At later times, it was possible to identify the ^99mTc associated with the GI tract as predominantly that in the luminal contents. The overall time course of ^99mTc activity in a ROI set over the GI tract was typically that of an initial rapid decrease which then slowed to approach the amount present in the luminal contents. This observation was considered to be due to an initial rapid uptake and subsequent tissue clearance of ^99mTc from the GI tract walls combined with the slow introduction of ^99mTc into the GI contents via hepatobiliary transport. The activity in the luminal contents was isolated by first modelling the GI tract wall tissue clearance by the renormalised time course of activity measured in a ROI set over a region of soft tissue (the quadriceps femoris in one leg). […] The ED per unit injected activity was subsequently calculated from the ensemble of organ-absorbed dose values.\nThe effective dose (ED) was calculated from the ensemble of organ-absorbed dose values at 7.8 ± 0.8 μSv/MBq."}, "integrin receptor αvβ3": {"test_system": "integrin receptor αvβ3", "conditions": "background statement, no reference printed; listed as 99mTc-Maraciclatide; cited from earlier work"}, "αvβ5 integrins": {"test_system": "αvβ5 integrins", "conditions": "background statement, no reference printed; cited from earlier work", "description": "As such, it holds promise as a novel diagnostic imaging agent for a range of pathological conditions. […] Methods A phase 1, randomised, placebo-controlled study assessed the safety, biodistribution and radiation dosimetry of ^99mTc-maraciclatide in healt ..."}},
  "note": "Numbered stars: 1 amine (or outer) side, 2 acyl side, 3 side chain; on linkers, the order of the positions; unused ones are H or OH. Bridge positions count the residues as written; N and C are the ends. Side chains are listed from the residue outwards. Peptide text beside a SMILES is read from it. * marks the point of attachment. X1 = C/C(=N\\O)C(C)(C)NCCC(CCNC(C)(C)/C(C)=N/O)CCN*; Glutaryl = O=C(CCCC(=O)[*:2])[*:1]; X2 = NC(=O)COCC(=O)NCCOCCOCCOCCN*",
  "data": [
    {"smiles": "C/C(=N\\O)C(C)(C)NCCC(CCNC(=O)CCCC(=O)NCCCC[C@@H]1NC(=O)CSC[C@@H](C(=O)NCCOCCOCCOCCNC(=O)COCC(N)=O)NC(=O)[C@H](Cc2ccccc2)NC(=O)[C@@H]2CSSC[C@H](NC1=O)C(=O)N[C@@H](CCCNC(=N)N)C(=O)NCC(=O)N[C@@H](CC(=O)O)C(=O)N2)CCNC(C)(C)/C(C)=N/O", "note": "(some centres unmarked) [^99mTc-maraciclatide, metal not drawn] ({CH2CO}-K([Glutaryl-X1])CRGDCFC-X2; disulfide 2-6; thioether N-8; N-terminus and C-terminus assumed)", "values": [
      {"measurement": "number of non-serious AEs", "setting": "healthy volunteers [1]; 24 participants receiving protocol-stipulated dose", "result": 31},
      {"measurement": "deaths", "setting": "healthy volunteers [1]; all dose groups, single i.v.", "result": "no deaths"},
      {"measurement": "intensity of related AEs", "setting": "healthy volunteers [1]; in vivo", "result": "mild intensity"},
      {"measurement": "laboratory, ECG and vital signs parameters", "setting": "healthy volunteers [1]; in vivo", "result": "no clinically important safety trends"},
      {"measurement": "participants experiencing non-serious AEs (number)", "setting": "healthy volunteers [1]; in vivo", "result": 17},
      {"measurement": "participants experiencing non-serious AEs (percent)", "setting": "healthy volunteers [1]; in vivo", "result": 71, "unit": "%"},
      {"measurement": "participants with AEs attributed to the agent", "setting": "healthy volunteers [1]; in vivo", "result": 6},
      {"measurement": "participants with AEs that required medical treatment (number)", "setting": "healthy volunteers [1]; in vivo", "result": 3},
      {"measurement": "participants with AEs that required medical treatment (percent)", "setting": "healthy volunteers [1]; in vivo", "result": 13, "unit": "%"},
      {"measurement": "participants with reduction in red blood cell count (number)", "setting": "healthy volunteers [1]; in vivo", "result": 4},
      {"measurement": "participants with reduction in red blood cell count (percent)", "setting": "healthy volunteers [1]; in vivo", "result": 17, "unit": "%"},
      {"measurement": "time to resolution of related AEs", "setting": "healthy volunteers [1]; in vivo", "result": "≤ 25", "unit": "h"},
      {"measurement": "dose excreted", "setting": "clinical; 99mTc activity excreted through the GI tract", "result": 16, "unit": "%"},
      {"measurement": "dose excreted", "setting": "clinical; 99mTc activity excreted through the urinary pathway", "result": 55, "unit": "%"},
      {"measurement": "normalised cumulated activity, combined walls of the small intestine and upper and lower large intestine", "setting": "healthy volunteers [2]", "result": "0.9 ± 0.2", "unit": "MBq*h/MBq"},
      {"measurement": "normalised cumulated activity, contents of the upper large intestine", "setting": "healthy volunteers [2]", "result": "0.3 ± 0.1", "unit": "MBq*h/MBq"},
      {"measurement": "normalised cumulated activity, liver", "setting": "healthy volunteers [2]", "result": "0.8 ± 0.2", "unit": "MBq*h/MBq"},
      {"measurement": "normalised cumulated activity, lung", "setting": "healthy volunteers [2]", "result": "0.4 ± 0.1", "unit": "MBq*h/MBq"},
      {"measurement": "uptake in the red bone marrow", "setting": "healthy volunteers [2]", "result": "too low to be quantified"},
      {"measurement": "systemic urinary clearance", "setting": "healthy volunteers [3]", "result": "approximately 6.7 ml/min/kg"},
      {"measurement": "mean effective dose (ED) per unit injected activity", "setting": "healthy volunteers [4]", "result": 7.8, "unit": "μSv/MBq"},
      {"measurement": "Absorbed dose per unit administered activity, Adrenal glands", "setting": "healthy volunteers [4]; iv", "result": 4.7, "unit": "μGy/MBq"},
      {"measurement": "Absorbed dose per unit administered activity, Bone surfaces", "setting": "healthy volunteers [4]; iv", "result": 4.5, "unit": "μGy/MBq"},
      {"measurement": "Absorbed dose per unit administered activity, Brain", "setting": "healthy volunteers [4]; iv", "result": 1.3, "unit": "μGy/MBq"},
      {"measurement": "Absorbed dose per unit administered activity, Breasts", "setting": "healthy volunteers [4]; iv", "result": 1.8, "unit": "μGy/MBq"},
      {"measurement": "Absorbed dose per unit administered activity, Gallbladder wall", "setting": "healthy volunteers [4]; iv", "result": 8.7, "unit": "μGy/MBq"},
      {"measurement": "Absorbed dose per unit administered activity, Heart wall", "setting": "healthy volunteers [4]; iv", "result": 6.1, "unit": "μGy/MBq"},
      {"measurement": "Absorbed dose per unit administered activity, Kidneys", "setting": "healthy volunteers [4]; iv", "result": 16.5, "unit": "μGy/MBq"},
      {"measurement": "Absorbed dose per unit administered activity, Liver", "setting": "healthy volunteers [4]; iv", "result": 11.1, "unit": "μGy/MBq"},
      {"measurement": "Absorbed dose per unit administered activity, Lower large intestine wall", "setting": "healthy volunteers [4]; iv", "result": 11.7, "unit": "μGy/MBq"},
      {"measurement": "Absorbed dose per unit administered activity, Lungs", "setting": "healthy volunteers [4]; iv", "result": 7.3, "unit": "μGy/MBq"},
      {"measurement": "Absorbed dose per unit administered activity, Muscle", "setting": "healthy volunteers [4]; iv", "result": 2.8, "unit": "μGy/MBq"},
      {"measurement": "Absorbed dose per unit administered activity, Ovaries", "setting": "healthy volunteers [4]; iv", "result": 6.3, "unit": "μGy/MBq"},
      {"measurement": "Absorbed dose per unit administered activity, Pancreas", "setting": "healthy volunteers [4]; iv", "result": 5.0, "unit": "μGy/MBq"},
      {"measurement": "Absorbed dose per unit administered activity, Red marrow", "setting": "healthy volunteers [4]; iv", "result": 3.0, "unit": "μGy/MBq"},
      {"measurement": "Absorbed dose per unit administered activity, Skin", "setting": "healthy volunteers [4]; iv", "result": 1.5, "unit": "μGy/MBq"},
      {"measurement": "Absorbed dose per unit administered activity, Small intestine wall", "setting": "healthy volunteers [4]; iv", "result": 8.9, "unit": "μGy/MBq"},
      {"measurement": "Absorbed dose per unit administered activity, Spleen", "setting": "healthy volunteers [4]; iv", "result": 16.1, "unit": "μGy/MBq"},
      {"measurement": "Absorbed dose per unit administered activity, Stomach", "setting": "healthy volunteers [4]; iv", "result": 3.8, "unit": "μGy/MBq"},
      {"measurement": "Absorbed dose per unit administered activity, Testes", "setting": "healthy volunteers [4]; iv", "result": 2.8, "unit": "μGy/MBq"},
      {"measurement": "Absorbed dose per unit administered activity, Thymus gland", "setting": "healthy volunteers [4]; iv", "result": 2.5, "unit": "μGy/MBq"},
      {"measurement": "Absorbed dose per unit administered activity, Thyroid gland", "setting": "healthy volunteers [4]; iv", "result": 4.9, "unit": "μGy/MBq"},
      {"measurement": "Absorbed dose per unit administered activity, Upper large intestine wall", "setting": "healthy volunteers [4]; iv", "result": 14.7, "unit": "μGy/MBq"},
      {"measurement": "Absorbed dose per unit administered activity, Urinary bladder wall", "setting": "healthy volunteers [4]; iv", "result": 36.2, "unit": "μGy/MBq"},
      {"measurement": "Absorbed dose per unit administered activity, Uterus", "setting": "healthy volunteers [4]; iv", "result": 7.5, "unit": "μGy/MBq"},
      {"measurement": "affinity to αvβ3", "setting": "integrin receptor αvβ3", "result": "high affinity"},
      {"measurement": "affinity to αvβ5", "setting": "αvβ5 integrins", "result": "high affinity"}
    ]}
  ]
}
